Assay results taken from article PMC3971370 (Molecular plant, 2012).

Target: nCFP–CPK3 (Arabidopsis thaliana, UniProt Q42479 1-529)
Test: split reporter

Sequence of nCFP–CPK3 (Q42479 whole entry): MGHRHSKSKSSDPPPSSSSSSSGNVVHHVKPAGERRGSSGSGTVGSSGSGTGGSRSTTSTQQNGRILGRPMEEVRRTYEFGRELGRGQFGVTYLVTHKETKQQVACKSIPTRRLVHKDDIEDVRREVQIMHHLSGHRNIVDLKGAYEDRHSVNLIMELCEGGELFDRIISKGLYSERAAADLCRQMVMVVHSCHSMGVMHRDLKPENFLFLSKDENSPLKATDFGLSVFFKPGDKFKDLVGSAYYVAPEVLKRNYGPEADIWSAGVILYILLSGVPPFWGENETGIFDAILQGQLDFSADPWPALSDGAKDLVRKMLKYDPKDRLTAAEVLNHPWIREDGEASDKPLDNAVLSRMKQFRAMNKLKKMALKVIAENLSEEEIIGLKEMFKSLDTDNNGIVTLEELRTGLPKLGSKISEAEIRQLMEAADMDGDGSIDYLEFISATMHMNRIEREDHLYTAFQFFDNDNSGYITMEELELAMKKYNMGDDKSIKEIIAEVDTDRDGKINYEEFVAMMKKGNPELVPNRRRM

BiFC signal relative to wild-type TPK1: ~0.5 fold of wild type
B1: cCFP–TPK1–R35A/R39A (natural protein)
chain: MSSDAARTPLLPTEKIDTMAQDFNLNSRTSSSRKARLRASRSAPRGDCMYNDDVKIDEPPPHPSKIPMFSDLNPNLRRVIMFLALYLTIGTLCFYLVRDQISGHKTSGVVDALYFCIVTMTTVGYGDLVPNSSASRLLACAFVFSGMVLVGHLLSRAADYLVEKQEALLVRAFHLRQSFGPTDILKELHTNKLRYKCYATCLVLVVLFIVGTIFLVMVEKMPVISAFYCVCSTVTTLGYGDKSFNSEAGRLFAVFWILTSSICLAQFFLYVAELNTENKQRALVKWVLTRRITNNDLEAADLDEDGVVGAAEFIVYKLKEMGKIDEKDISGIMDEFEQLDYDESGTLTTSDIVLAQTTSQIQR
